Data published in publication PMC3025356, “Mechanism of the Ca^2+-Dependent Interaction between S100A4 and Tail Fragments of Nonmuscle Myosin Heavy Chain IIA” (Journal of Molecular Biology, 2011).

Tests used:
S100A4 = target: T1, S100A4 (Homo sapiens, UniProt P26447); assay: Summary of rate and equilibrium constants defined according to Scheme 1; assay type: binding
T1 construct: We used full-length S100A4 for this analysis; made in house; host or cells: Escherichia coli BL21(DE3)
From the text: The interaction of myosin tail fragments (M) with S100A4 depends on [Ca^2+], with little detectable binding in the absence of Ca^2+.[2,7,17] Scheme 1 presents a minimal pathway describing the thermodynamics and kinetics of this interaction, where arrow lengths indicate the approximate position of the equilibria involved.
[formula] Scheme 1 Ca2+ and myosin peptide (M) binding to S100A4.
The binding of Ca^2+ and a target peptide to S100A4, as shown in Scheme 1, is thermodynamically coupled so that K1K2 = K0K3. For simplicity, we assume a 1:1 stoichiometry and independent binding sites, which are unlikely to be true at least for the longer fragments. However, the trends in binding remain valid for more complex cases. Binding of target peptides to S100A4 in the absence of Ca^2+ is weak (K0 > 100 μM), while binding of target peptides to S100A4 in the presence of Ca^2+ (K2) is around a micromolar or less for longer fragments. Knowing that Ca^2+ binding to S100A4 has K1 = 2–5 μM (from the ITC data above and the literature[14,17,18]) requires that Ca^2+ binding to the M–S100A4 complex be very tight (K3 < 0.15 μM and even lower for M200). The latter cannot be easily determined directly as it requires protein concentrations greater than K0 (i.e., >>100 μM) so that the proteins remain bound together throughout the titration with Ca^2+. However, K3 is readily determined by calculation because values or limits for K0, K1, and K2 are available (Table 2). This aspect is addressed further below for M200, which has the complication of forming filaments at the ionic strength used.

M200 filaments = assay: Stopped-flow turbidity, dissociation of M200 filaments on NaCl jump or dilution; assay type: biochemical, human
Method: Fig. 9 Dissociation of M200 filaments by S100A4. (a) Initially, M200 was added (i) from a concentrated stock in 0.5 M NaCl to give a final concentration of 5 μM M200 (with respect to the polypeptide chain) in 100 mM NaCl, 10 mM Hepes, and 0.1 mM Ca^2+ at pH 7.5 and 20 °C. A biphasic rise in turbidity was recorded for 200 s (continuous line). Then 10 μM S100A4 (with respect to monomer concentration) was added (ii), followed by 0.2 mM EGTA (iii) and 1 mM Ca^2+ (iv). […] (b) M200 was diluted (i) into 100 mM NaCl to form filaments as in (a), then 5 μM S100A4 was added (ii), causing a 54% drop in turbidity. A further 5 μM S100A4 (iii) caused turbidity to fall to almost zero. (c) Stopped-flow records monitoring the dissociation of 5 μM M200 filaments on jumping [NaCl] from 100 mM to 120 mM NaCl. Other components of the buffer were 20 mM Hepes, 1 mM Mg^2+, and 100 μM Ca^2+ at pH 7.5 and 20 °C. […] In the presence of 20 μM S100A4 (lower trace), the turbidity decreased by 87% with a rate constant of 0.2 s^− 1.
It is of interest to know whether S100A4 drives depolymerisation solely by binding to free M monomer and allowing the polymer equilibrium to readjust (i.e., via k− 4 and k5), or whether S100A4 also binds to the filament bundle and actively depolymerises an M200 unit (via k6 and k− 7). […] In an attempt to address this question, the dissociation rate of the M200 filament was followed on jumping the NaCl concentration from 100 mM to 120 mM in the absence and in the presence of S100A4 (Fig. 9c). Under these conditions in the absence of S100A4, turbidity dropped to about 50% of its initial value with a profile fitted to a double exponential (k1obs = 0.33 s^− 1 with 12% amplitude and k2obs = 0.037 s^− 1 with 43% amplitude, relative to the total amplitude expected for a full dissociation). Therefore, at the end point of this reaction, the filament concentration decreased by about 2-fold (turbidity is proportional to concentration over this range; Fig. S5b). There should also be a corresponding rise in M200 monomer concentration, but this may be less than accounted for by the loss of filaments if the drop in turbidity was also associated with a rise in small M200 oligomers with a lower specific turbidity. […]

T1 sequence (P26447 whole entry): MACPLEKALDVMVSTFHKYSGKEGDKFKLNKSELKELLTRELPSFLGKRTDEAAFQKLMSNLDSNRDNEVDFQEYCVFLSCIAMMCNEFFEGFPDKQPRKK

B1: M200: His-tagged human NM-MHC IIA residues Q1761-E1960, V1913I substitution (protein, UniProt P35579 1761-1960, looked up, variant V1913I)
chain: QINTDLNLERSHAQKNENARQQLERQNKELKVKLQEMEGTVKSKYKASITALEAKIAQLEEQLDNETKERQAACKQVRRTEKKLKDVLLQVDDERRNAEQYKDQADKASTRLKQLKRQLEEAEEEAQRANASRRKLQRELEDATETADAMNREISSLKNKLRRGDLPFVVPRRMARKGAGDGSDEEVDGKADGAEAKPAE
modifications: His tag
notes: His-tagged human NM-MHC IIA residues Q1761-E1960, V1913I substitution
- k3 (S100A4; Ca^2+ association to peptide–S100A4): > 2000 μM^− 1 s^− 1
- Kd (S100A4; Ca^2+ binding to peptide–S100A4, limit from K3 = K1K2/K0, read-out: K3): < 0.15 nM
- k− 3 (S100A4; Ca^2+ dissociation from peptide–S100A4–Ca^2+): 0.3 s^− 1
- k− 2 (S100A4; peptide dissociation from S100A4–Ca^2+): < 0.3 s^− 1
- turbidity change on dilution relative to that with S100A4 (M200 filaments; 2-fold dilution at 100 mM NaCl, no S100A4): 10%
- fast rate constant, no S100A4 (M200 filaments; NaCl jump 100 to 120 mM): 0.33 s^− 1
- slow rate constant, no S100A4 (M200 filaments; NaCl jump 100 to 120 mM): 0.037 s^− 1
- turbidity of initial value after NaCl jump (M200 filaments; NaCl jump, no S100A4): about 50%
